Results published in the supplement of paper PMC10126150.
± gives the standard deviation of the averaged measurements.

Tested on: ATP
Assay: switch fluorescence ratio, 500 uM ATP over buffer (Cy3 cluster intensity, sum of 5 cycles each) (fold (ratio)); higher = stronger signal-on switching upon ATP binding; sequences stand for … in TCGTCGGCAGCGTCAGATGTGTATAAGAGACAGTTTTTTTTTTTTTTTTTTTTTTTTT…TC
Details: aptamer strand: ATP DNA aptamer (quencher-CACCTGGGGGAGTATTGCGGAGGAAGG + anchor), 100 nM annealed; ATP concentration: 500 uM
Outline: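 The quencher-labelled ATP aptamer, at 100 nM, was annealed to Cy3-labelled switching-strand clusters on a modified Illumina MiSeq flow-cell. The clusters were imaged in selection buffer, then after 15 min with 500 uM ATP at 22 °C, and this buffer/ATP cycle ran five times with NaOH stripping and re-annealing between runs. Per-cluster fluorescence ratios, summed target-cycle over summed buffer-cycle Cy3 intensity, were averaged per switch-domain sequence. Clusters outside 100-1000 RFU were excluded.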
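Also: ATP exposure 15 min at 22 °C before imaging.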

Sequence	switch fluorescence ratio
ATATGGTCTA	0.999 ± 0.053
ATATGGTTGA	0.964 ± 0.049
ATATGTCTGG	0.953 ± 0.017
ATATGTGGAA	1.015 ± 0.01
ATATGTGGGA	1.02 ± 0.033
ATATGTGTGT	0.995 ± 0.018
ATATGTGTTG	0.992 ± 0.0066
ATATTACGAA	1.02 ± 0.035
ATATTAGGGC	1.02 ± 0.015
ATATTAGGGG	1.01 ± 0.032
ATATTATTTC	1.006 ± 0.0058
ATATTCGATT	0.999 ± 0.027
ATATTCTTCC	1.96 ± 0.18
ATATTGATGT	1.01 ± 0.037
ATATTGATTC	1.01 ± 0.027
ATATTGCTCG	1.05 ± 0.06
ATATTGCTGA	0.978 ± 0.078
ATATTGGAGA	1.13 ± 0.25
ATATTGGGGA	1.01 ± 0.025
ATATTGGGTT	0.9708 ± 0.0074
ATATTGTAAC	0.98 ± 0.013
ATATTGTCCA	1.02 ± 0.0039
ATATTTAACC	1.02 ± 0.025

Sequence	switch fluorescence ratio
ATATTTCAGG	0.999 ± 0.027
ATATTTGCGT	0.974 ± 0.021
ATATTTGGAT	1.03 ± 0.018
ATATTTTACG	1.02 ± 0.06
ATATTTTAGC	1.03 ± 0.074
ATATTTTGTA	0.983 ± 0.036
ATCAAAAGCG	0.96765 ± 0.00089
ATCAAACGGG	1.02 ± 0.029
ATCAAATCGA	1 ± 0.043
ATCAAGGGTT	0.991 ± 0.025
ATCAAGGTTG	0.978 ± 0.031
ATCAAGTGAG	0.998 ± 0.015
ATCAATCTCG	1.017 ± 0.0093
ATCAATGAAG	0.975 ± 0.023
ATCAATGTCT	0.994 ± 0.005
ATCAATTTAG	1.02 ± 0.038
ATCACAACTG	0.997 ± 0.15
ATCACAATTT	1.04 ± 0.017
ATCACATTGG	1.02 ± 0.071
ATCACGATGG	1.03 ± 0.019
ATCACGTCTA	1.024 ± 0.003
ATCACGTTTT	0.991 ± 0.051
ATCAGAGCCG	0.98 ± 0.083

Sequence	switch fluorescence ratio
ATCAGATAGG	1 ± 0.026
ATCAGATATG	0.9974 ± 0.0033
ATCAGCAGGC	1.6 ± 0.045
ATCAGGAAAA	1.02 ± 0.071
ATCAGGGGGG	1.02 ± 0.037
ATCAGGGGTA	1.26 ± 0.34
ATCAGGGGTT	1.34 ± 0.6
ATCAGGTACG	1.02 ± 0.033
ATCAGGTTCT	1.028 ± 0.0031
ATCAGTGCGA	1.036 ± 0.0081
ATCAGTGGTA	0.987 ± 0.028
ATCATAGCGG	1 ± 0.015
ATCATATTAG	1.01 ± 0.019
ATCATTAATG	1.01 ± 0.014
ATCATTAGGA	0.9922 ± 0.0046
ATCATTTAGT	0.982 ± 0.027
ATCATTTGTC	1.022 ± 0.0092
ATCATTTGTT	0.991 ± 0.017
ATCCAAATGG	1.01 ± 0.033
ATCCAGGGGA	0.989 ± 0.06
ATCCAGT	1.036 ± 0.0033
ATCCATACAA	1.03 ± 0.035
ATCCATTCA	1.02 ± 0.0094

Sequence	switch fluorescence ratio
ATCCGAAGAT	1.04 ± 0.016
ATCCGAGTCA	1.07 ± 0.014
ATCCGGGACC	1.06 ± 0.02
ATCCGGGATG	1.03 ± 0.021
ATCCGGGGGA	1.04 ± 0.11
ATCCGTAGGT	0.995 ± 0.029
ATCCGTGGTT	1.01 ± 0.047
ATCCGTGTCG	1.02 ± 0.048
ATCCTCGTTG	1.02 ± 0.03
ATCCTGGATA	1.003 ± 0.01
ATCCTGGGTG	3.73 ± 1.5
ATCCTTGCG	1.022 ± 0.0053
ATCCTTGGTC	1.01 ± 0.023
ATCGAAGCCA	1.091 ± 0.0016
ATCGAGAGGT	0.973 ± 0.019
ATCGAGGGGA	0.978 ± 0.019
ATCGAGGGGT	0.955 ± 0.037
ATCGATATTG	0.991 ± 0.029
ATCGATTGTT	1.01 ± 0.031
ATCGCATATG	1.08 ± 0.053
ATCGCGACTA	1.05 ± 0.036
ATCGCGAGGA	1.026 ± 0.0025
ATCGCGTGTG	1.009 ± 0.0062

Sequence	switch fluorescence ratio
ATCGCTTAGG	1 ± 0.012
ATCGGAATAA	1.4 ± 0.025
ATCGGACGCG	0.987 ± 0.016
ATCGGATGGC	1.06 ± 0.02
ATCGGGAGAT	0.9833 ± 0.0076
ATCGGGAGCC	0.959 ± 0.03
ATCGGGCTGT	1.03 ± 0.013
ATCGGGGAGA	0.997 ± 0.017
ATCGGGGGA	1.02 ± 0.051
ATCGGGGGTC	0.946 ± 0.032
ATCGGGGGTT	0.987 ± 0.023
ATCGGGGTCC	1.02 ± 0.019
ATCGGGTAA	0.9965 ± 0.0029
ATCGGGTCGG	1.01 ± 0.03
ATCGGTGGGG	0.963 ± 0.019
ATCGTATGGA	0.998 ± 0.013
ATCGTGATGG	1.03 ± 0.04
ATCGTGGGAA	0.9793 ± 0.0059
ATCGTGGGGG	1 ± 0.028
ATCGTGTTGA	0.971 ± 0.02
ATCGTTATCA	0.991 ± 0.056
ATCGTTCGTG	0.99714 ± 0.00096
ATCGTTCTGT	0.966 ± 0.025

Sequence	switch fluorescence ratio
ATCGTTGAGG	0.986 ± 0.023
ATCGTTGCGG	1.1 ± 0.099
ATCGTTGTA	1.04 ± 0.069
ATCGTTGTAC	1.18 ± 0.048
ATCGTTTAAT	0.9671 ± 0.003
ATCTACATTA	1.04 ± 0.015
ATCTACGTTG	1.05 ± 0.012
ATCTAGGTCA	1.02 ± 0.037
ATCTAGTTTG	1.01 ± 0.045
ATCTATCGTG	0.991 ± 0.021
ATCTATGGTG	1.02 ± 0.02
ATCTCTGGGT	1 ± 0.033
ATCTCTGGTC	0.976 ± 0.027
ATCTGAGAGG	1.003 ± 0.0031
ATCTGGAATA	1.24 ± 0.039
ATCTGGCTCG	0.988 ± 0.016
ATCTGTTTTT	0.972 ± 0.0075
ATCTTAATG	1.01 ± 0.05
ATCTTAGTGC	1 ± 0.026
ATCTTCAATT	1.005 ± 0.0055
ATCTTGAGAC	1.02 ± 0.042
ATCTTGGGTT	1.006 ± 0.0064
ATCTTGTGGC	0.972 ± 0.032

Sequence	switch fluorescence ratio
ATCTTGTGTC	0.945 ± 0.02
ATCTTGTTGG	1.13 ± 0.27
ATCTTTATGT	1.03 ± 0.017
ATCTTTCGCG	1.02 ± 0.015
ATCTTTTAGG	1.07 ± 0.11
ATGAAATCTG	1.06 ± 0.074
ATGAAGAGAG	0.9897 ± 0.0069
ATGAAGCTAG	1.06 ± 0.013
ATGAAGGGAA	0.999 ± 0.017
ATGAAGGGTG	1.04 ± 0.036
ATGAAGTTGT	1.019 ± 0.01
ATGAATCTTG	1.02 ± 0.032
ATGAATGTTT	1 ± 0.026
ATGAATTTGG	0.973 ± 0.025
ATGACCGGTT	1.01 ± 0.046
ATGACCTCGG	1.02 ± 0.07
ATGACGAAGC	1.57 ± 0.13
ATGACGCCTG	1 ± 0.022
ATGACTTGCG	1 ± 0.023
